Test results taken from PMC9769707.

Target: T1, Dnr (Pseudomonas aeruginosa PAO1) (UniProt Q51441)
T1 sequence: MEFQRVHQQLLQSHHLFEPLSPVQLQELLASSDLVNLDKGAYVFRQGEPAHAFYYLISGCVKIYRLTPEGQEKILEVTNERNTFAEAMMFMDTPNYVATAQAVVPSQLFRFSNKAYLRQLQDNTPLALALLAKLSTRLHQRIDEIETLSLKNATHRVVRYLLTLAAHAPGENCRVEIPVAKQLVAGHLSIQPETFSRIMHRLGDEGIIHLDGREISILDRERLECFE
Assay: EMSA

“GGCGGCTGACTCCGATGCAATGGTGGGGGAGCAATGCATCGGGGGGATGCCCTGATCATCGCAGTCCCTTGCTGGATCACAGGCATGACAGGGAAAACGGCGCAGAACCTGTCCTTGGCGATCCCTCTGGTCCGTCACTGGCGACGAACTACAAAAGACGCTAGAACAGGTCTATGGATTTGCAAAATAAAATTTTCGTTGGACTCCC (double strand) [hcp3 promoter fragment]” was tested, and the binding was “no binding”.
